Key:
Assay in all cases: cell-based or functional assay
Tro11 = Tro11 (Human immunodeficiency virus 1)
6535_3 = 6535_3 (Human immunodeficiency virus 1)
SC4226618 = SC4226618 (Human immunodeficiency virus 1)

B1: chimeric IgG: 8ANC195 HC paired with mature LC with CDRL2 reverted to germline (antibody, V domains shown)
VH: QIHLVQSGTEVKKPGSSVTVSCKAYGVNTFGLYAVNWVRQAPGQSLEYIGQIWRWKSSASHHFRGRVLISAVDLTGSSPPISSLEIKNLTSDDTAVYFCTTTSTYDKWSGLHHDGVMAFSSWGQGTLISVSA
VL: DIQMTQSPSTLSASIGDTVRISCRASQSITGNWVAWYQQRPGKAPRLLIYKASALLGGVPSRFSGSAAGTDFTLTIGNLQAEDFGTFYCQQYDTYPGTFGQGTKVEVK
With B1 the “IC50 (fold change over 8ANC195 IgG), pseudovirus neutralization [panel B]” value (shortened to “IC50 (fold change over 8ANC195 IgG)”) (Tro11) was 62 fold, the “IC50 (fold change over 8ANC195 IgG)” value (6535_3) was 31 fold and the “IC50 (fold change over 8ANC195 IgG)” value (SC4226618) was 99 fold.
